B1: Speckle-type POZ protein (Homo sapiens), O43791 (parent)
chain: MSRVPSPPPPAEMSSGPVAESWCYTQIKVVKFSYMWTINNFSFCREEMGEVIKSSTFSSGANDKLKWCLRVNPKGLDEESKDYLSLYLLLVSCPKSEVRAKFKFSILNAKGEETKAMESQRAYRFVQGKDWGFKKFIRRDFLLDEANGLLPDDKLTLFCEVSVVQDSVNISGQNTMNMVKVPECRLADELGGLWENSRFTDCCLCVAGQEFQAHKAILAARSPVFSAMFEHEMEESKKNRVEINDVEPEVFKEMMCFIYTGKAPNLDKMADDLLAAADKYALERLKVMCEDALCSNLSVENAAEILILADLHSADQLKTQAVDFINYHASDVLETSGWKSMVVSHPHLVAEAYRSLASAQCPFLGPPRKRLKQS
partner: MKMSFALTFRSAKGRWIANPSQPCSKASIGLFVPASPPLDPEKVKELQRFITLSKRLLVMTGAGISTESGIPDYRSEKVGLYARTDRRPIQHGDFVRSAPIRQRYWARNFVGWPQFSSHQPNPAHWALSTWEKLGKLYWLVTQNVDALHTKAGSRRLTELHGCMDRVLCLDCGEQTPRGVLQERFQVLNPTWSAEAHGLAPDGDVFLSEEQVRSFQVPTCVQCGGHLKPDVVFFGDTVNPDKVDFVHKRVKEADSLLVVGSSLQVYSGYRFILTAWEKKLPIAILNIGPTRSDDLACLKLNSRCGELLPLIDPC
B2: Speckle-type POZ protein (Homo sapiens), O43791 (parent)
chain: B1 chain
partner: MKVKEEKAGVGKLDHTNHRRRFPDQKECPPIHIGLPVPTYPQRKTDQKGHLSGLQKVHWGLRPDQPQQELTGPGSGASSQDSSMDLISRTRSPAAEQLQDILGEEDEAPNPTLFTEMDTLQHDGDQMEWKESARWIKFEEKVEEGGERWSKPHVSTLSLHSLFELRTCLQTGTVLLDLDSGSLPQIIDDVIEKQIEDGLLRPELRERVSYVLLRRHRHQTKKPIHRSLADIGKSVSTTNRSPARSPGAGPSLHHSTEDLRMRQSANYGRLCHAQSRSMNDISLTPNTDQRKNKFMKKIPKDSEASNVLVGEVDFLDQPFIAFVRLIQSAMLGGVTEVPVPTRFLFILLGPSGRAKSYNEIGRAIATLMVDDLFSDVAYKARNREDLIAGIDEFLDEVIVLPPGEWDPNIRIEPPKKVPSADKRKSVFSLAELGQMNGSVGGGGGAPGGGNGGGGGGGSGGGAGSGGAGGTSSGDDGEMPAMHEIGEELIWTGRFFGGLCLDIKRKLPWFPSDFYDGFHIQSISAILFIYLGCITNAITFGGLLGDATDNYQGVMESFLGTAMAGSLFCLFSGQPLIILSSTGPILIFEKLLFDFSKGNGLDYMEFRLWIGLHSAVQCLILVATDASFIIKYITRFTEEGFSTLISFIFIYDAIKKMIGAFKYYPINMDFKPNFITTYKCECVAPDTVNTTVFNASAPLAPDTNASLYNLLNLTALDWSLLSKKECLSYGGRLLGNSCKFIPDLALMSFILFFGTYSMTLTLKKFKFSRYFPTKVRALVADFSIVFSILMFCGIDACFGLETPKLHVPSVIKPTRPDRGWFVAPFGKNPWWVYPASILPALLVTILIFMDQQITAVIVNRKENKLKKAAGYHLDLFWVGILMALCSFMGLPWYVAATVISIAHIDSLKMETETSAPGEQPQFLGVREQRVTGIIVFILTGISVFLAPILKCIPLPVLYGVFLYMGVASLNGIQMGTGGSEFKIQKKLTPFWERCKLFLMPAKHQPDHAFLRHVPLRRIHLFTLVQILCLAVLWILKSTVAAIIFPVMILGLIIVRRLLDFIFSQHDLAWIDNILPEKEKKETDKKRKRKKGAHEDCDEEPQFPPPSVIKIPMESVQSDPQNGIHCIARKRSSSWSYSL
B3: Speckle-type POZ protein (Homo sapiens), O43791 (parent)
chain: B1 chain
partner: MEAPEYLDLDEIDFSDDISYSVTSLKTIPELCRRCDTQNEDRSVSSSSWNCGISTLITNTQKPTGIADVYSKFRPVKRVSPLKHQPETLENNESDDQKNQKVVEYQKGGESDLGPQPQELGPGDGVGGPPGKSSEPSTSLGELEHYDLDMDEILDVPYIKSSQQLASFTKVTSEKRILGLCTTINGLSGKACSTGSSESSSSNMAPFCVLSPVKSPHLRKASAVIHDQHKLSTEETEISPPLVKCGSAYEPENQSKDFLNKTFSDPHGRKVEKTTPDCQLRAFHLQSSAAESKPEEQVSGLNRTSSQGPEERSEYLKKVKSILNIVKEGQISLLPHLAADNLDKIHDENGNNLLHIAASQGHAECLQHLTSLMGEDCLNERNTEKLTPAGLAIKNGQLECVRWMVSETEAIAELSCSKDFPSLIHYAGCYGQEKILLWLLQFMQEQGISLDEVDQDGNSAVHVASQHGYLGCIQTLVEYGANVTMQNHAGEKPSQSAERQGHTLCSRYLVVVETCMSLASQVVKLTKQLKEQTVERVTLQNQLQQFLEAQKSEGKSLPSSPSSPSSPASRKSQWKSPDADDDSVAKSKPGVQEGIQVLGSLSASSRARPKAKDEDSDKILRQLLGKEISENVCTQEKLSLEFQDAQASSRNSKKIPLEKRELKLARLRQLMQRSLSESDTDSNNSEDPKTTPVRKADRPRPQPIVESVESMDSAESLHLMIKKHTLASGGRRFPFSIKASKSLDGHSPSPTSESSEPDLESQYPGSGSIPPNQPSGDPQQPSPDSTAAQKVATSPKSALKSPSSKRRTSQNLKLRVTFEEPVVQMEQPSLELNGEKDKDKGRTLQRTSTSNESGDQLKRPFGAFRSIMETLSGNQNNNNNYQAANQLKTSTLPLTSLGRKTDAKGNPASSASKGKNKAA
B4: Speckle-type POZ protein (Homo sapiens), O43791 (parent)
chain: B1 chain
partner: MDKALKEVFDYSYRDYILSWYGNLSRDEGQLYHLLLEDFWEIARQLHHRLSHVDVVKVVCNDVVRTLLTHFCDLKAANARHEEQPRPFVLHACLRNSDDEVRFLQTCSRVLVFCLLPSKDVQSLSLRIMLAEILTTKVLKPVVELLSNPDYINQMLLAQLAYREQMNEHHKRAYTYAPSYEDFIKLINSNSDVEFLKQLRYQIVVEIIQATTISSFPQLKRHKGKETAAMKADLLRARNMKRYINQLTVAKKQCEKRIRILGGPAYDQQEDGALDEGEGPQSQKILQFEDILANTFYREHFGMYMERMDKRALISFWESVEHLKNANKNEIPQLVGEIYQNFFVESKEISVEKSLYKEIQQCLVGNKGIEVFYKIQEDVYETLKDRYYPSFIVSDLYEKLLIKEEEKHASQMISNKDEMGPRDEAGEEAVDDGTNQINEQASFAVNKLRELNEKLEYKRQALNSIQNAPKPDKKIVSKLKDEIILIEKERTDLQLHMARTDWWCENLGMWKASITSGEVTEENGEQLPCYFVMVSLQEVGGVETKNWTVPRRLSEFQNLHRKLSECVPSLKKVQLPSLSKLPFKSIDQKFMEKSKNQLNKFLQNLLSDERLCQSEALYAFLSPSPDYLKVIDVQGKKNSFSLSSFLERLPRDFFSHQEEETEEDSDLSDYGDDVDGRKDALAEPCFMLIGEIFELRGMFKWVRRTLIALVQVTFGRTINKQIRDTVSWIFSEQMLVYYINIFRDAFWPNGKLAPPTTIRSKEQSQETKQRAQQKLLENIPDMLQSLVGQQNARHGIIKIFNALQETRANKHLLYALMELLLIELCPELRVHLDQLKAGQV
B5: Speckle-type POZ protein (Homo sapiens), O43791 (parent)
chain: B1 chain
partner: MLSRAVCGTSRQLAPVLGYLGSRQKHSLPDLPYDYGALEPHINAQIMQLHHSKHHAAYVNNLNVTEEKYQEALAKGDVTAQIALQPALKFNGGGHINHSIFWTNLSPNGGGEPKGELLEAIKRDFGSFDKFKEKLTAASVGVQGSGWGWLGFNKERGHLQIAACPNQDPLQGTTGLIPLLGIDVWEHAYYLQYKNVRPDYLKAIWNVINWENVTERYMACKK
B6: Speckle-type POZ protein (Homo sapiens), O43791 (parent)
chain: B1 chain
partner: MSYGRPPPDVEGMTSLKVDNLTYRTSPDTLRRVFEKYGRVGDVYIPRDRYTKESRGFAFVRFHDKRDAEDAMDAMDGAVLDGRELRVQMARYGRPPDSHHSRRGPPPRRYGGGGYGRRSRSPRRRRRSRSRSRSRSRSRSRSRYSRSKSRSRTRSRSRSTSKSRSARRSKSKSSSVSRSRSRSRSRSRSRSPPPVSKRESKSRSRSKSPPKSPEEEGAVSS
B7: Speckle-type POZ protein (Homo sapiens), O43791 (parent)
chain: B1 chain
partner: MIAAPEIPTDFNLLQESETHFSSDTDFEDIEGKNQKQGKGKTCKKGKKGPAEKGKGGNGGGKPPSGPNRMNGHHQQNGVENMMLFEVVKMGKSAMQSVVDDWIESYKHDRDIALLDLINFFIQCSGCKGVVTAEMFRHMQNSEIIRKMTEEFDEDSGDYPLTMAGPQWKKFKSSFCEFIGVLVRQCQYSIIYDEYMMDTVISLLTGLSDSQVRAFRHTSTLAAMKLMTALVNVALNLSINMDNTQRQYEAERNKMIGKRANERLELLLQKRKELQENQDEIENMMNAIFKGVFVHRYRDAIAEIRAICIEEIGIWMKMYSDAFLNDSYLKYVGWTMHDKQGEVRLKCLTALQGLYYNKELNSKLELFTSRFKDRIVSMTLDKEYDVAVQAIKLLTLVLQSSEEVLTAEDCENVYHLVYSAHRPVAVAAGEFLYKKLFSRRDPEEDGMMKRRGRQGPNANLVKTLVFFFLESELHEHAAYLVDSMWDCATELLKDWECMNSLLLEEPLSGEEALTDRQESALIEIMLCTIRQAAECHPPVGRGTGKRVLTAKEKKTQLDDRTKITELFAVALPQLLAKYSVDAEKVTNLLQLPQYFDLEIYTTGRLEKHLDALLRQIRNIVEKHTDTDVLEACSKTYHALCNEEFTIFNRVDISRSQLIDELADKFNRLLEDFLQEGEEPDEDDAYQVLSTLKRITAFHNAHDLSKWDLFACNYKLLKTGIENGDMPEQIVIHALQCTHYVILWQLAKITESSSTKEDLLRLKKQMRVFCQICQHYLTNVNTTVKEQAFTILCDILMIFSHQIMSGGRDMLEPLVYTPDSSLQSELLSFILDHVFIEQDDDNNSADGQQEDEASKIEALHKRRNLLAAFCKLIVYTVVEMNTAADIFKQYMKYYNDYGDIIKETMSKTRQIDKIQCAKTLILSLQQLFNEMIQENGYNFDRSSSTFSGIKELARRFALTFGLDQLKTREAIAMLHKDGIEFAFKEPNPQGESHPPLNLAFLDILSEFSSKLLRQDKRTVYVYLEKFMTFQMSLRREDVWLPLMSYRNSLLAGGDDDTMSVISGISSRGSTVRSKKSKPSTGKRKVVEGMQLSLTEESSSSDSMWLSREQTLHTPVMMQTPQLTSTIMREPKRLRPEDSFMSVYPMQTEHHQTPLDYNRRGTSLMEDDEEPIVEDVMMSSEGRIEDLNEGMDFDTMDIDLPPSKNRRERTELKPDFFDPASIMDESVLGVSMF

Variants of: B1
Details: with sir4_human SIRT4, Q9Y6E7

Variant | effect of a mutation on the interaction
Y87C | with no effect

Variants of: B1
Details: with sir4_human SIRT4, Q9Y6E7
Remark: another data set of the same source

Variant | effect of a mutation on the interaction
F133V | with no effect

Variants of: B2
Details: with s4a5_human SLC4A5, Q9BY07

Variant | effect of a mutation on the interaction
F102C | with no effect

Variants of: B2
Details: with s4a5_human SLC4A5, Q9BY07
Remark: another data set of the same source

Variant | effect of a mutation on the interaction
F133L | with no effect

Variants of: B2
Details: with s4a5_human SLC4A5, Q9BY07
Remark: another data set of the same source

Variant | effect of a mutation on the interaction
Y87C | with no effect

Variants of: B2
Details: with s4a5_human SLC4A5, Q9BY07
Remark: another data set of the same source

Variant | effect of a mutation on the interaction
F133V | with no effect

Variants of: B3
Details: with sncap_human SNCAIP

Variant | effect of a mutation on the interaction
F102C | with no effect

Variants of: B3
Details: with sncap_human SNCAIP
Remark: another data set of the same source

Variant | effect of a mutation on the interaction
F133L | with no effect

Variants of: B3
Details: with sncap_human SNCAIP
Remark: another data set of the same source

Variant | effect of a mutation on the interaction
Y87C | with no effect

Variants of: B3
Details: with sncap_human SNCAIP
Remark: another data set of the same source

Variant | effect of a mutation on the interaction
F133V | with no effect

Variants of: B4
Details: with snx25_human SNX25, Q9H3E2

Variant | effect of a mutation on the interaction
F102C | with no effect

Variants of: B4
Details: with snx25_human SNX25, Q9H3E2
Remark: another data set of the same source

Variant | effect of a mutation on the interaction
F133L | with no effect

Variants of: B4
Details: with snx25_human SNX25, Q9H3E2
Remark: another data set of the same source

Variant | effect of a mutation on the interaction
Y87C | with no effect

Variants of: B4
Details: with snx25_human SNX25, Q9H3E2
Remark: another data set of the same source

Variant | effect of a mutation on the interaction
F133V | with no effect

Variants of: B5
Details: with sodm_human SOD2, P04179

Variant | effect of a mutation on the interaction
F102C | with no effect

Variants of: B5
Details: with sodm_human SOD2, P04179
Remark: another data set of the same source

Variant | effect of a mutation on the interaction
F133L | with no effect

Variants of: B5
Details: with sodm_human SOD2, P04179
Remark: another data set of the same source

Variant | effect of a mutation on the interaction
Y87C | with no effect

Variants of: B5
Details: with sodm_human SOD2, P04179
Remark: another data set of the same source

Variant | effect of a mutation on the interaction
F133V | with no effect

Variants of: B6
Details: with srsf2_human SRSF2, Q01130

Variant | effect of a mutation on the interaction
F102C | with no effect

Variants of: B6
Details: with srsf2_human SRSF2, Q01130
Remark: another data set of the same source

Variant | effect of a mutation on the interaction
F133L | with no effect

Variants of: B6
Details: with srsf2_human SRSF2, Q01130
Remark: another data set of the same source

Variant | effect of a mutation on the interaction
Y87C | with no effect

Variants of: B6
Details: with srsf2_human SRSF2, Q01130
Remark: another data set of the same source

Variant | effect of a mutation on the interaction
F133V | with no effect

Variants of: B7
Details: with stag2_human STAG2, Q8N3U4

Variant | effect of a mutation on the interaction
F102C | with no effect
